Experimental findings from publication PMC2875865 (Nature cell biology, 2010) are described below.

Assay [1] addresses full-length FLAG-tagged Orai1 purified from insect cells (human, UniProt Q96D31 1-301). The experiment in a line: pull-down.
Assay [2] deals with full-length FLAG-tagged STIM1 purified from insect cells (human, UniProt Q13586 23-685). Put plainly: pull-down.
full-length FLAG-tagged STIM1 purified from insect cells, sequence (Q13586 23-685): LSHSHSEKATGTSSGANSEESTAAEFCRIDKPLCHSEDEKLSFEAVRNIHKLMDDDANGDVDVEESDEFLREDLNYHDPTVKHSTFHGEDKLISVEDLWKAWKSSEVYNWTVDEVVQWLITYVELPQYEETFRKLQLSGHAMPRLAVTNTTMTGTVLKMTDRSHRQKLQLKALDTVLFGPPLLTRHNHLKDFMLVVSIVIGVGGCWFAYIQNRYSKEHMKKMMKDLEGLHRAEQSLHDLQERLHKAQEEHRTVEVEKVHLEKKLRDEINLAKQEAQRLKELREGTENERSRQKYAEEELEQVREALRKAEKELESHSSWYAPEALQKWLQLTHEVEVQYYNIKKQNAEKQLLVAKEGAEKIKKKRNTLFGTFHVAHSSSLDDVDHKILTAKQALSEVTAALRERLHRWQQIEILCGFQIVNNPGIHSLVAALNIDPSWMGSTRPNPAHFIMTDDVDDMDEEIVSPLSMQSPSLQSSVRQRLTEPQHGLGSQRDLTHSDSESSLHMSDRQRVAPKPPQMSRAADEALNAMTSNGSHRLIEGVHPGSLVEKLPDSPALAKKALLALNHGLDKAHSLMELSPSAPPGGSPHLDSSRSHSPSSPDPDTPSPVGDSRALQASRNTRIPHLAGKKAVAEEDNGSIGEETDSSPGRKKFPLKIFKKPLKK

full-length FLAG-tagged Orai1 purified from insect cells, sequence (Q96D31 whole entry): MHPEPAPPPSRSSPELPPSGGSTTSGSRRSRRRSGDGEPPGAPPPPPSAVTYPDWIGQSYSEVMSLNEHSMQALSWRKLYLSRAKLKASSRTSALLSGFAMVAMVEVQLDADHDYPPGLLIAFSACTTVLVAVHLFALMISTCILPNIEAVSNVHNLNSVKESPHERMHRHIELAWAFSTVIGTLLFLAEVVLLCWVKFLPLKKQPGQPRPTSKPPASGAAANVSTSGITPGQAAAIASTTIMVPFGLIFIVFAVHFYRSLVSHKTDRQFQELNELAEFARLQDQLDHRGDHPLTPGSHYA

B1: GST-fused STIM1 serine/threonine rich sequence (S/T) (domain or fragment)
chain: SSLDDVDHKILTAKQALSEVTAALRERLHRWQQIEILCGFQIVNNPGIHSLVAALNIDPSWMGSTRPNPAHFIMTDDVDDMDEEIVSPLSMQSPSLQSSVRQRLTEPQHGLGSQRDLTHSDSESSLHMSDRQRVAPKPPQMSRAADEALNAMTSNGSHRLIEGVHPGSLVEKLPDSPALAKKALLALNHGLDKAHSLMELS
For the molecule B1, the binding result in assay [1] and in assay [2] was “binds” in each case.
